Values of other authors as cited in paper PMC8431939.

Target: CD112 (Homo sapiens) (UniProt Q92692)
Assay: SPR

UniProt Q92692, sequence (Q92692 32-538): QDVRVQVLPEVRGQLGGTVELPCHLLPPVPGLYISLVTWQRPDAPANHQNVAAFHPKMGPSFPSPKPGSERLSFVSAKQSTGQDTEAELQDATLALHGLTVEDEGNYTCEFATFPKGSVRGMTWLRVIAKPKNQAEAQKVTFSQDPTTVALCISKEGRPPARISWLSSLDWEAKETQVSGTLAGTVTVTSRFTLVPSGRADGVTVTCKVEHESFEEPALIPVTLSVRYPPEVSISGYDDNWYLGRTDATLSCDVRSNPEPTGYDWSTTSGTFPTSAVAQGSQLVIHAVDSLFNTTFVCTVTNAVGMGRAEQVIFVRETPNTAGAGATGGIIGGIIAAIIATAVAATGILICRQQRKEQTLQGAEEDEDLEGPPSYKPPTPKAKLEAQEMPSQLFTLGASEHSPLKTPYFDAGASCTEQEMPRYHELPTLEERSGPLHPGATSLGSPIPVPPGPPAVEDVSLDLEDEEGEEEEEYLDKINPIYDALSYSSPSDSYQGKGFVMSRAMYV

Kd: 88 nM
Substance: CD112R (from UniProt Q6DKI7)
